Laboratory results published in IntAct's records for PubMed 33727702.

B1: Interferon-induced helicase C domain-containing protein 1 (Homo sapiens), Q9BYX4 (parent)
chain: MSNGYSTDENFRYLISCFRARVKMYIQVEPVLDYLTFLPAEVKEQIQRTVATSGNMQAVELLLSTLEKGVWHLGWTREFVEALRRTGSPLAARYMNPELTDLPSPSFENAHDEYLQLLNLLQPTLVDKLLVRDVLDKCMEEELLTIEDRNRIAAAENNGNESGVRELLKRIVQKENWFSAFLNVLRQTGNNELVQELTGSDCSESNAEIENLSQVDGPQVEEQLLSTTVQPNLEKEVWGMENNSSESSFADSSVVSESDTSLAEGSVSCLDESLGHNSNMGSDSGTMGSDSDEENVAARASPEPELQLRPYQMEVAQPALEGKNIIICLPTGSGKTRVAVYIAKDHLDKKKKASEPGKVIVLVNKVLLVEQLFRKEFQPFLKKWYRVIGLSGDTQLKISFPEVVKSCDIIISTAQILENSLLNLENGEDAGVQLSDFSLIIIDECHHTNKEAVYNNIMRHYLMQKLKNNRLKKENKPVIPLPQILGLTASPGVGGATKQAKAEEHILKLCANLDAFTIKTVKENLDQLKNQIQEPCKKFAIADATREDPFKEKLLEIMTRIQTYCQMSPMSDFGTQPYEQWAIQMEKKAAKEGNRKERVCAEHLRKYNEALQINDTIRMIDAYTHLETFYNEEKDKKFAVIEDDSDEGGDDEYCDGDEDEDDLKKPLKLDETDRFLMTLFFENNKMLKRLAENPEYENEKLTKLRNTIMEQYTRTEESARGIIFTKTRQSAYALSQWITENEKFAEVGVKAHHLIGAGHSSEFKPMTQNEQKEVISKFRTGKINLLIATTVAEEGLDIKECNIVIRYGLVTNEIAMVQARGRARADESTYVLVAHSGSGVIEHETVNDFREKMMYKAIHCVQNMKPEEYAHKILELQMQSIMEKKMKTKRNIAKHYKNNPSLITFLCKNCSVLACSGEDIHVIEKMHHVNMTPEFKELYIVRENKALQKKCADYQINGEIICKCGQAWGTMMVHKGLDLPCLKIRNFVVVFKNNSTKKQYKKWVELPITFPNLDYSECCLFSDED
partner: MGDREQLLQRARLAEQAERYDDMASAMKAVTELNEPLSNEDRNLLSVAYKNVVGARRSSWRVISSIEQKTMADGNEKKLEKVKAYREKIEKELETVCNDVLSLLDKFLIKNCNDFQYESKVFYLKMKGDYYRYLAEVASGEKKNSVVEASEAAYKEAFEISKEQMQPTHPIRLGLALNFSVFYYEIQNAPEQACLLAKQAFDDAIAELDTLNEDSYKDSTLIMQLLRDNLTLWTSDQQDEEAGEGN
B2: Interferon-induced helicase C domain-containing protein 1 (Homo sapiens), Q9BYX4 (parent)
chain: B1 chain

Variants of: B1
Conditions: with 1433f_human YWHAH

effect of a mutation on the interaction	Variant
with no effect	K68R
with no effect	K23R;K43R

Variants of: B2
Conditions: with isg15_human ISG15, P05161
isg15_human ISG15, P05161, sequence (P05161 whole entry): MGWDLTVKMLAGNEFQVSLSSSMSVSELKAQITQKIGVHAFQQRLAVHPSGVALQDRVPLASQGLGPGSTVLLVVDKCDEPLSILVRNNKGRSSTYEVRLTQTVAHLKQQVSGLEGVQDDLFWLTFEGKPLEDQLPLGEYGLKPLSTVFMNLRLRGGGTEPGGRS

effect of a mutation on the interaction	Variant
with no effect	K137R
with no effect	K169R
with no effect	K174R
increasing interaction strength	K235R

The remaining lines, values behind:

Variant	effect of a mutation on the interaction
K68R	decreasing interaction strength
K43R	decreasing interaction strength
K23R	decreasing interaction strength
K23R;K43R	disrupting interaction strength
K128R	with no effect
